Test results reported in patent publication US20110136738A1, “Alternatively Transcribed Genes Associated with Schizophrenia” (University College Dublin, National University of Ireland, …, priority 2008, published 2011).
Entries after “also recorded” stand apart in the source; their conditions may differ.

Tested on: isolation reared animals
Assay: Prepulse inhibition of startle in isolation reared animals (ICV midkine)
Type: in vivo, male Wistar rats
Details: isolation reared rats, four daily ICV injections of midkine 2 μg/day, compared to vehicle-treated animals
Method: Isolation-reared animals (isolated animals) were housed singly in non-soft bottom cages (22.5 cm×34.5 cm×17 cm), from time of weaning (postnatal day 25, P25) until completion of behavioral testing. A standard 12 hour light/dark cycle was observed and food and water was provided ad libitum. Noise and visual stimuli were kept to an absolute minimum as described previously by Geyer et al., 1993. Socially reared animals (social animals) were housed in groups of 4 from time of weaning until surgical implantation of a guide cannula on P80, there after they were housed singly. […] The startle apparatus consisted of a sound attenuating chamber (54.6×50.8×30.5 cm), a startle platform which measured the startle response, and an audio stimulator, controlled by the startle reflex software (MED Associates Inc.). […] The resulting movement of the rats was measured during 100 ms after startle stimulus onset, and then rectified, amplified and analyzed by computer and the maximal response and average response over the 100 ms period determined. Baseline startle amplitude was determined as the mean response of all startle trials. The percent prepulse inhibition was determined according to the following formula: 100-([startle amplitude at prepulse trial/startle amplitude at startle trial]×100%). The effect on baseline startle amplitude was analyzed by a one-way analysis of variance (ANOVA). […]

B1: midkine (protein, UniProt P21741 21-143, looked up)
Midkine: VAKKKDKVKKGGPGSECAEWAWGPCTPSSKDCGVGFREGTCGAQTQRIRCRVPCNWKKEFGADCKYKFENWGACDGGTGTKVRQGTLKKARYNAQCQETIRVTKPCTPKTKAKAKAKKGKGKD
  prepulse inhibition (PPI) of startle: reverses the deficit observed in prepulse inhibition of startle; also recorded: reversed PPI behavior back to normal
Listed as Midkine
  prepulse inhibition (PPI) of startle: reversed the deficit observed in prepulse inhibition of startle; also recorded: reversed PPI behavior back to normal
